Test system: O=C(Cc1cccs1)N[C@@H]1C(=O)N2C(C(=O)O)=C(/C=C/c3ccc([N+](=O)[O-])cc3[N+](=O)[O-])CS[C@H]12
Test: steady-state hydrolysis kinetics with purified PenA
Assay type: biochemical, Burkholderia multivorans

PenA β-lactamase (Burkholderia multivorans ATCC 17616)
Km: 147 ± 15 µM | kcat/Km: 3.2e+06 ± 300000 M⁻¹ s⁻¹

From PMC5560099
